In patent US20220267417A1 (UNIVERSIT GRENOBLE ALPES, published 2022):

T1: OprF protein of Pseudomonas aeruginosa with N-terminal polyhistidine tag, in proteoliposomes (Pseudomonas aeruginosa, UniProt P13794 25-350, limits assumed)
T1 construct: Made by cell-free synthesis (E. coli lysate) in the presence of liposomes; inserted in the liposomal membrane, found oligomerized, in open and closed channel conformations; Genbank AFM37279.1 is printed for OprF in general; The sense primer starts at the ATG of the gene, so the signal peptide may be part of the construct; also called porin OprF; OprF membrane antigen; not shown: N-terminal …
T1 sequence (looked up): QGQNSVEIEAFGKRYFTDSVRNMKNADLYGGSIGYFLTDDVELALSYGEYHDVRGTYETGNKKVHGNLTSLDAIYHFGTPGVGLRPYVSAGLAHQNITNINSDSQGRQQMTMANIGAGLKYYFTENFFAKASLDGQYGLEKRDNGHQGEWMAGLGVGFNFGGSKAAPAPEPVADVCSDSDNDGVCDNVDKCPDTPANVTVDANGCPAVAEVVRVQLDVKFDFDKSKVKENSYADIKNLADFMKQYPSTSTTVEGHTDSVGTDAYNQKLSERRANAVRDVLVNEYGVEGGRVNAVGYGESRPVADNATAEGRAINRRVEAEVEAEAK

T2: OprF protein of Pseudomonas aeruginosa on bacteria of the CHA strain (Pseudomonas aeruginosa, UniProt P13794 25-350)
T2 sequence (looked up): T1 sequence (looked up)

B1: scFv fragment E7 (scFv)
scFv: QVQLEQSGAEVKQPGASVKVSCKASGYSFSSYGMNWVRQAPGQRPEWMGWINADTGKSTYAPGFKERFTFSLDTSVSTAYLTISSLKAEDTAVYYCVRSCRGGVCQLYHWGQGVLITVSSGGGGSGGGGSGGGGSDIELTQSPTSIAVSQGERVTISCTASSSVTTGYFHWYQQKPGFPPRLLVYGTSSLPSGVPARFSGSGSGTSYTLTISNMEAEDAAHYYCQQGHTIPLTFGGGTKVEIKHHHHHHEQKLISEEDL
notes: Macaque scFv, format VH-(G4S)3-VL-6xHis-c-myc
B2: scFv fragment F10 (scFv)
scFv: QVQLEQSGAEVKQPGASVKVSCKASGYSFNTYGMNWVRQAPGQRPEWMGWINADTGKSTYAPGFKERFTFSLDTSVSTAYLTISSLKAEDTAVYFCVRSCRGGVCQLYHWGQGVLVTVSSGGGGSGGGGSGGGGSDIELTQSPTSMAVSQGERVTISCTASSSVSTNYLHWYQQKPGFPPRLLVYRTSSLAPGVPARFSGSGSGTSYTLTISNMEAEDAAHYYCQQGNTIPLTFGGGTKVEIKHHHHHHEQKLISEEDL
notes: as for B1
B3: scFv fragment G9 (scFv)
scFv: QVQLEQSGAEVKHPGASVKVSCKASGYSFSTYGMNWVRQAPGQRPEWMGWINADTGKSTYAPGFKERFTFSLDTSVSTAYLTISSLKAEDTAVYYCVRSCRGGVCQLYHWGQGVLITVSSGGGGSGGGGSGGGGSELQMTQSPTSMAVSQGERVTISCTASSSVNTNYLHWYQQKPGFPPRLLVYGTSSLVAGVPARFSGSGSGTSYTLTISNMEAEDAANYYCQQGNTIPLTFGGGTKVEIKHHHHHHEQKLISEEDL
notes: as for B1
B4: scFv fragment F8 (scFv)
scFv: QVQLEQSGAEVKQPGASVKVSCKASGYSFSSYGMNWVRQAPGQRPEWLGWINADTGKSTYAPGFKERFTFSLDTSVSTAYLTISSLKAEDTAVYYCVRSCRGGVCQLYHWGQGVLITVSSGGGGSGGGGSGGGGSEIELTQSPTSIAVSRGERVTVSCMASSSVRTGYLHWYQQKPGFPPRLLVYGTSSLPSGVPARFSGSGSGTSYTLTISSVEPEDVAHYYCQQGHTIPLTFGGGTKVEIKHHHHHHEQKLISEEDL
notes: as for B1

Biological target: T1, OprF protein of Pseudomonas aeruginosa …
Experiment: ELISA on coated OprF proteoliposomes, anti-c-myc-peroxidase detection, one site-specific binding fit
Method: By way of example, the dissociation constant Kd is determined for the scFv fragments E7, F8, F10 and G9, with an ELISA method.
For this purpose, 100 μl of OprF proteoliposomes (containing an OprF concentration of 1 μg/ml) contained in fixation buffer (0.1 M sodium carbonate, 0.1 M sodium bicarbonate) are fixed at the bottom of the wells of a 96-well plate (Thermo Scientific®) overnight at 4° C. and under stirring. The wells are then blocked for 1 h at 21° C. with 100 μl of TBS Tween (TBST) buffer containing 5% milk. After washing the wells with 100 μl of TBST buffer, 100 μl of scFv fragment (E7, F8, F10 or G9), at 1:50; 1:200; 1:400; 1:800; 1:1600 and 1:3200 dilutions in TBST buffer, are added to the corresponding wells and incubated for 1 h at 37° C. under stirring. After washing the wells, 100 μl of anti-c-myc-Peroxidase antibody (Roche) (1:10000 dilution in TBST buffer containing 5% milk) is added to the wells and incubated for 1 h at 37° C. under stirring. After washing the wells 3 times, 50 μl of TMB is added to the wells and the plate is incubated at ambient temperature and protected from light for approximately 15 min. 50 μl of 1 M HCl is then added and the absorbance of each well is measured at 450 nm. These absorbance data are then analyzed using the GraphPad Prism software (non-linear regression analysis, “one site-specific binding” equation) in order to calculate the dissociation constant Kd of each scFv fragment tested. By way of comparison, a measurement is also made on the buffer only.

Row | Binder | Kd [nM]
1 | B1 | 213
2 | B2 | 1490
3 | B3 | 295
4 | B4 | 211

Biological target: T2, OprF protein of Pseudomonas aeruginosa …
Experiment: cell-based or functional assay

Row | Binder | cytotoxicity of P. aeruginosa towards macrophages (LDH release, A490-A680 nm)
5 | B1 | ~0.67 fraction of cytotoxicity reduced
6 | B3 | ~0.67 fraction of cytotoxicity reduced
7 | B4 | ~0.67 fraction of cytotoxicity reduced
